In patent publication US20220267438A1 (Janssen / Centocor, published 2022):
Where two headings read alike, the source gives them in different places.

Columns and labels:
[1] = target: T1, human BCMA (B cell maturation antigen, TNFRSF17) on cells (human, UniProt Q02223 1-184); assay: cell-based or functional assay
T1 sequence (looked up): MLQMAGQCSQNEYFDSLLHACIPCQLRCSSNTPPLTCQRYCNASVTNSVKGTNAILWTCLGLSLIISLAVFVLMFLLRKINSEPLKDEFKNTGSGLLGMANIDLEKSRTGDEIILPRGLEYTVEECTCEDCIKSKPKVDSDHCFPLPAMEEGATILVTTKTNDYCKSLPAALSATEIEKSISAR

[2] = target: T2, human GPRC5D (G-protein coupled receptor family C group 5 member D) on cells (human, UniProt Q9NZD1 1-345); assay: cell-based or functional assay
T2 sequence (Q9NZD1 whole entry): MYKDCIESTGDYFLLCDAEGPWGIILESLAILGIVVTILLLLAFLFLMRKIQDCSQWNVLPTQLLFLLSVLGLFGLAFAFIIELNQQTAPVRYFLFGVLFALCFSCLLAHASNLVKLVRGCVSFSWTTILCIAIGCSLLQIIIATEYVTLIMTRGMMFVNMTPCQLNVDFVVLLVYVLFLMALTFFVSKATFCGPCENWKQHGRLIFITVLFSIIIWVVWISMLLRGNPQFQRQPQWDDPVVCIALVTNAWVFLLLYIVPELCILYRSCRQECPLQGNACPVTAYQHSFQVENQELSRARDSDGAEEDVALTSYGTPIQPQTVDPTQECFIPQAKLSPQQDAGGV

[3] = target: T3, cynomolgus monkey CD3 on peripheral blood mononuclear cells (cynomolgus monkey, UniProt Q95LI5 22-198); assay: flow cytometry, cynomolgus monkey PBMCs
T3 construct: whole, on cells; also called cyno CD3
T3 sequence (Q95LI5 22-198): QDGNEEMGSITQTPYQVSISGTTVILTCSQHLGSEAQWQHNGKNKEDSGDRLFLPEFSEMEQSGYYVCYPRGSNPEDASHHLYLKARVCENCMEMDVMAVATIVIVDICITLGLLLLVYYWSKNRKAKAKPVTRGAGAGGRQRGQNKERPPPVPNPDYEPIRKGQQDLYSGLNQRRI
Method: The CD3-binding arm (i.e., CD3B376) binds to cynomolgus monkey CD3. Briefly, binding was measured by flow cytometry after incubating human and cynomolgus monkey peripheral blood mononuclear cells (PBMCs) with GCDB381 (i.e., CD3B376 Fab in bivalent IgG1-AAS antibody), CD3B891 (i.e., CD3B376×Null, IgG1-AAS bispecific antibody), or null control.

[4] = target: T4, human CD3 (CD3ε of the TCR/CD3 complex) on primary human pan T cells (human, UniProt P07766 23-207); assay: flow cytometry on T cells of donor D203727, with curve extrapolation
T4 construct: whole, on cells; On T cells CD3ε stands in the whole TCR/CD3 complex
T4 sequence (P07766 23-207, one chain of several): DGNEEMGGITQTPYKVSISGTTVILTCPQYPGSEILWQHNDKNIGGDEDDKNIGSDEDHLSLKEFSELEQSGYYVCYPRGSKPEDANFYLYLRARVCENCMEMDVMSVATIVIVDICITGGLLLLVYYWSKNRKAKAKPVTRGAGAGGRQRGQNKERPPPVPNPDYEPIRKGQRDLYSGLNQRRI
Method: (§1) Flow cytometry was used to evaluate the CD3 arm (i.e., CD3B376) binding of BGCB491 to CD3⁺ pan T cells from 7 different healthy human. Cell-based EC₅₀ for CD3B376 could not be determined due to lack of saturation kinetics at 1 hour (FIG. 26). Bioinformatic extrapolation was performed (FIG. 27) using the CD3B376×Null control antibody (i.e., GCDB381) molecule, which saturates within 2 μM top concentration dose-response to constrain the top of the non-linear regression curve to generate a full curve that enables estimation of ECₓ values (Table 21).

[5] = target: T4, human CD3 (CD3ε of the TCR/CD3 complex) …; assay: flow cytometry on T cells of donor D316144, with curve extrapolation
Method: as §1

[6] = target: T4, human CD3 (CD3ε of the TCR/CD3 complex) …; assay: flow cytometry on T cells of donor D327645, with curve extrapolation
Method: as §1

[7] = target: T5, BCMW37 (recombinant human BCMA antigen) (human, UniProt Q02223 1-54, limits assumed); assay: SPR
T5 construct: also called BCMA BCMW37 chain; human BCMA (SPR antigen)
T5 sequence (looked up): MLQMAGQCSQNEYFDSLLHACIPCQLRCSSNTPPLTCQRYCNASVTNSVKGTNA

[8] = target: T1, human BCMA (B cell maturation antigen, …); assay: cell binding, H929 and MM.1R cells
[9] = target: T1, human BCMA (B cell maturation antigen, …); assay: cell binding, H929 and MM.1R cells; remark: listed apart in the source
[10] = target: T5, BCMW37 (recombinant human BCMA antigen); assay: SPR; antigen BCMW37; parental BCMA binder as scFv
[11] = target: T2, human GPRC5D (G-protein coupled …); assay: cell binding, H929 and MM.1R cells
[12] = target: T2, human GPRC5D (G-protein coupled …); assay: cell binding, H929 and MM.1R cells; lower end of the range over H929 and MM.1R cells

B1: Teclistamab (BCMA×CD3 bispecific antibody) (bispecific antibody)
chain 1: not shown
chain 2: SYVLTQPPSVSVAPGQTARITCGGNNIGSKSVHWYQQPPGQAPVVVVYDDSDRPSGIPERFSGSNSGNTATLTISRVEAGDEAVYYCQVWDSSSDHVVFGGGTKLTVLGQPKAAPSVTLFPPSSEELQANKATLVCLISDFYPGAVTVAWKGDSSPVKAGVETTTPSKQSNNKYAASSYLSLTPEQWKSHRSYSCQVTHEGSTVEKTVAPTECS
chain 3: EVQLVESGGGLVQPGGSLRLSCAASGFTFNTYAMNWVRQAPGKGLEWVARIRSKYNNYATYYAASVKGRFTISRDDSKNSLYLQMNSLKTEDTAVYYCARHGNFGNSYVSWFAYWGQGTLVTVSSASTKGPSVFPLAPCSRSTSESTAALGCLVKDYFPEPVTVSWNSGALTSGVHTFPAVLQSSGLYSLSSVVTVPSSSLGTKTYTCNVDHKPSNTKVDKRVESKYGPPCPPCPAPEAAGGPSVFLFPPKPKDTLMISRTPEVTCVVVDVSQEDPEVQFNWYVDGVEVHNAKTKPREEQFNSTYRVVSVLTVLHQDWLNGKEYKCKVSNKGLPSSIEKTISKAKGQPREPQVYTLPPSQEEMTKNQVSLTCLVKGFYPSDIAVEWESNGQPENNYKTTPPVLDSDGSFLLYSKLTVDKSRWQEGNVFSCSVMHEALHNHYTQKSLSLSLGK
chain 4: QTVVTQEPSLTVSPGGTVTLTCRSSTGAVTTSNYANWVQQKPGQAPRGLIGGTNKRAPGTPARFSGSLLGGKAALTLSGVQPEDEAEYYCALWYSNLWVFGGGTKLTVLGQPKAAPSVTLFPPSSEELQANKATLVCLISDFYPGAVTVAWKADSSPVKAGVETTTPSKQSNNKYAASSYLSLTPEQWKSHRSYSCQVTHEGSTVEKTVAPTECS
CD3 T-cell activation EC50, H929-GPRC5D-KO [1]: 0.253 nM | CD3 T-cell activation EC50, H929-WT [1]: 0.334 nM | Cytotoxicity EC50, H929-GPRC5D-KO [1]: 0.198 nM | Cytotoxicity EC50, H929-WT [1]: 0.275 nM

B2: Talquetamab (GPRC5D×CD3 bispecific antibody) (bispecific antibody)
chain 1: not shown
chain 2: DIQMTQSPSSLSASVGDRVTITCKASQNVATHVGWYQQKPGKAPKRLIYSASYRYSGVPSRFSGSGSGTEFTLTISNLQPEDFATYYCQQYNRYPYTFGQGTKLEIKRTVAAPSVFIFPPSDEQLKSGTASVVCLLNNFYPREAKVQWKVDNALQSGNSQESVTEQDSKDSTYSLSSTLTLSKADYEKHKVYACEVTHQGLSSPVTKSFNRGEC
chain 3: EVQLVESGGGLVQPGGSLRLSCAASGFTFNTYAMNWVRQAPGKGLEWVARIRSKYNNYATYYAASVKGRFTISRDDSKNSLYLQMNSLKTEDTAVYYCARHGNFGNSYVSWFAYWGQGTLVTVSSASTKGPSVFPLAPCSRSTSESTAALGCLVKDYFPEPVTVSWNSGALTSGVHTFPAVLQSSGLYSLSSVVTVPSSSLGTKTYTCNVDHKPSNTKVDKRVESKYGPPCPPCPAPEAAGGPSVFLFPPKPKDTLMISRTPEVTCVVVDVSQEDPEVQFNWYVDGVEVHNAKTKPREEQFNSTYRVVSVLTVLHQDWLNGKEYKCKVSNKGLPSSIEKTISKAKGQPREPQVYTLPPSQEEMTKNQVSLTCLVKGFYPSDIAVEWESNGQPENNYKTTPPVLDSDGSFLLYSKLTVDKSRWQEGNVFSCSVMHEALHNHYTQKSLSLSLGK
chain 4: QTVVTQEPSLTVSPGGTVTLTCRSSTGAVTTSNYANWVQQKPGQAPRGLIGGTNKRAPGTPARFSGSLLGGKAALTLSGVQPEDEAEYYCALWYSNLWVFGGGTKLTVLGQPKAAPSVTLFPPSSEELQANKATLVCLISDFYPGAVTVAWKADSSPVKAGVETTTPSKQSNNKYAASSYLSLTPEQWKSHRSYSCQVTHEGSTVEKTVAPTECS
CD3 T-cell activation EC50, H929-BCMA-KO [2]: 0.633 nM | CD3 T-cell activation EC50, H929-WT [2]: 0.233 nM | Cytotoxicity EC50, H929-BCMA-KO [2]: 0.761 nM | Cytotoxicity EC50, H929-WT [2]: 0.243 nM

B3: GCDB381 (CD3B376 Fab in bivalent IgG1-AAS antibody) (antibody, V domains shown)
VH: QVQLQQSGPRLVRPSQTLSLTCAISGDSVFNNNAAWSWIRQSPSRGLEWLGRTYYRSKWLYDYAVSVKSRITVNPDTSRNQFTLQLNSVTPEDTALYYCARGYSSSFDYWGQGTLVTVSS
VL: QSALTQPASVSGSPGQSITISCTGTSSNIGTYKFVSWYQQHPDKAPKVLLYEVSKRPSGVSSRFSGSKSGNTASLTISGLQAEDQADYHCVSYAGSGTLLFGGGTKLTVL
binding result [3]: binds | EC50 (read off the curve) [4]: ~80 nM | EC50 (read off the curve) [5]: ~80 nM | EC50 (read off the curve) [6]: ~70 nM

B4: BCMB519 (parental anti-BCMA binder, tested as scFv) (scFv, V domains shown)
VH: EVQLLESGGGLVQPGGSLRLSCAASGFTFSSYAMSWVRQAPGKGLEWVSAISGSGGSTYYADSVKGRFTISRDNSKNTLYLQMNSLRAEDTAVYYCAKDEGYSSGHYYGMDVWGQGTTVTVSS
VL: EIVLTQSPGTLSLSPGERATLSCRASQSISSSFLTWYQQKPGQAPRLLIYGASSRATGIPDRFSGGGSGTDFTLTISRLEPEDFAVYYCQHYGSSPMYTFGQGTKLEIK
notes: Tested 'as scFv'; also called BCMA lead
Kd [7]: 0.28 nM | EC50 [8]: 2.3 to 3.2 nM | EC50 [9]: 2.3 to 3.2 nM | Kd [10]: 0.28 nM

B5: GC5B680 (parental anti-GPRC5D binder, tested as Fab) (Fab, V domains shown)
VH: QVTLKESGPVLVKPTETLTLTCTVSGFSLTNIRMSVSWIRQPPGKALEWLAHIFSNDEKSYSTSLKSRLTISRDTSKSQVVLTLTNVDPVDTATYYCARMRLPYGMDVWGQGTTVTVSS
VL: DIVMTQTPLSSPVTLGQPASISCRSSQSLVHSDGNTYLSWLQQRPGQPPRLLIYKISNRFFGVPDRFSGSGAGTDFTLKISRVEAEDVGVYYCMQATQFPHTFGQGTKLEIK
notes: Tested 'as Fab'; also called GPRC5d lead
EC50 [11]: 6 to 24 nM | EC50 [12]: 6 to 24 nM
